Measured values reported in patent US6207419A, “Thrombin inhibitory agents and methods of using same” (The University of North Carolina at Chapel Hill, priority 1999, dated 2001).

Assays:
Format in all cases: biochemical
[1] = test system: thrombin; assay: pH titration of thrombin inhibition; settings: pH 6.2 to pH 8; FIG. 6
Description: Therefore, it is possible that the enhanced thrombin inhibitory activity of rHCII-CHis6 (assayed at pH 7.4) is attributable to a charge on the carboxyl terminal tag. An assay was designed to measure thrombin inhibition by rHCII-CHis6 and wt-rHCII from pH 6.2 to pH 8.

[2] = target: T1, α-thrombin (Homo sapiens, UniProt P00734); assay: Effect of hirugen on thrombin inhibition in the absence of glycosaminoglycan
T1 construct: Human α-thrombin, HCII, and ATIII were purified in our laboratory from plasma; from tissue; host or cells: human plasma (purified in the authors' laboratory)
Procedure: Residual thrombin activity was measured with 150 μM GlyProArg-NA and 1 mg/mL pB in the absence of glycosaminoglycan, 2 mg/mL pB in the presence of heparin and 4 mg/mL in the presence of dermatan sulfate. Residual factor Xa activity was measured with 500 μM Spectrozyme FXa and 2mg/mL pB in the presence or absence of glycosaminoglycan. Residual chymotrypsin activity was measured with 150 μM AlaAlaProPhe-NA and residual trypsin activity was measured with 150 μM GlyProArg-NA.
Assays were performed at least in triplicate on two or more recombinant protein preparations.

[3] = target: T2, plasma purified α-thrombin (Homo sapiens, UniProt P00734); assay: Thrombin inhibition in the presence of glycosaminoglycans (heparin or dermatan sulfate)
T2 construct: Human α-thrombin, HCII, and ATIII were purified in our laboratory from plasma; from tissue; host or cells: human plasma (purified in the authors' laboratory)
Procedure: Protease inhibition rates were determined as described previously (Rogers, S. J., Pratt, C. W., Whinna, H. C., and Church, F. C. (1992) J. Biol. Chem. 267(6), 3613-3617; Whinna, H. C., Choi, H. U., Rosenberg, L. C., and Church, F. C. (1993) J. Biol. Chem. 268, 3920-3924; Ciaccia, A. V., Cunningham, E. L., and Church, F. C. (1995) Protein Express. Purific. 6, 806-812; Ciaccia, A. V., Willemze, A. J., and Church, F. C. (1997) J. Biol. Chem. 272(2), 888-893). All assays were performed at room temperature in 96-well microtiter plates previously coated with 2 mg/mL BSA.
In the presence of glycosaminoglycans, 5 nM rHCII (wt, CHis6, CHis5 Pro, L444R, or L444R-CHis6) was incubated with 0.5 nM thrombin and 0-1 mg/mL heparin or 0-4 mg/mL dermatan sulfate or 10 nM rATIII (wt or CHis6) was incubated with 1 nM thrombin or factor Xa and 0-1 mg/mL heparin in the presence of 2 mg/mL BSA in HNPN, pH 7.4.
Residual thrombin activity was measured with 150 μM GlyProArg-NA and 1 mg/mL pB in the absence of glycosaminoglycan, 2 mg/mL pB in the presence of heparin and 4 mg/mL in the presence of dermatan sulfate. Residual factor Xa activity was measured with 500 μM Spectrozyme FXa and 2mg/mL pB in the presence or absence of glycosaminoglycan. Residual chymotrypsin activity was measured with 150 μM AlaAlaProPhe-NA and residual trypsin activity was measured with 150 μM GlyProArg-NA. Substrate cleavage was measured by color development at […] on a Vmax Kinetic Microplate Reader (Molecular Devices).
Assays were performed at least in triplicate on two or more recombinant protein preparations. All inhibition studies were measured under pseudo-first order conditions where inhibitor [I] is at least ten-fold higher than enzyme (protease) [E], and second-order rate constants were calculated as described previously (Ciaccia, A. V., Cunningham, E. L., and Church, F. C. (1995) Protein Express. Purific. 6, 806-812; Ciaccia, A. V., Willemze, A. J., and Church, F. C. (1997) J. Biol. Chem. 272(2), 888-893).

B1: rHCII-CHis6: Recombinant HCII with six histidine residues added at the carboxyl terminus; SEQ ID NO:5 (protein)
chain: MKHSLNALLIFLIITSAWGGSKGPLDQLEKGGETAQSADPQWEQLNNKNLSMPLLPADFHKENTVTNDWIPEGEEDDDYLDLEKIFSEDDDYIDIVDSLSVSPTDSDVSAGNILQLFHGKSRIQRLNILNAKFAFNLYRVLKDQVNTFDNIFIAPVGISTAMGMISLGLKGETHEQVHSILHFKDFVNASSKYEITTIHNLFRKLTHRLFRRNFGYTLRSVNDLYIQKQFPILLDFRTKVREYYFAEAQIADFSDPAFISKTNNHIMKLTKGLIKDALENIDPATQMMILNCIYFKGSWVNKFPVEMTHNHNFRLNEREVVKVSMMQTKGNFLAANDQELDCDILQLEYVGGISMLIVVPHKMSGMKTLEAQLTPRVVERWQKSMTNRTREVLLPKFKLEKNYNLVESLKLMGIRMLFDKNGNMAGISDQRIAIDLFKHQGTITVNEEGTQATTVTTVGFMPLSTQVRFTVDRPFLFLIYEHRTSCLLFMGRVANPSRSHHHHHH
modifications: C-terminal His6 tag
- inhibition of thrombin over pH titration, in words [1]: greater than that by wt-rHCII
- reduction of rate of thrombin inhibition by hirugen ([2]; hirugen 20 μM, absence of glycosaminoglycan): > 50%
- rate constant of inhibition (k2) in the absence of peptide ([2]; no hirugen, no control peptide, FIG. 5): 310 M⁻¹ s⁻¹
- average dermatan sulfate concentration at which the maximal rate was measured (in parentheses), thrombin ([3]; Thrombin + dermatan sulfate, unit not printed in table (text b157: μg/mL)): 500
- average heparin concentration at which the maximal rate was measured (in parentheses), thrombin ([3]; Thrombin + heparin, unit not printed in table (text b156: μg/mL)): 5
- dermatan sulfate concentration at maximal rate of thrombin inhibition ([3]; dermatan sulfate): approximately 500 μg/mL
- maximal rate of thrombin inhibition in the presence of dermatan sulfate ([3]; dermatan sulfate at optimal concentration): 1.80±0.50×10^9 M^-1 min^-1
- decrease in the amount of heparin required for maximal activity versus wt-rHCII ([3]; heparin): ~20 fold
- heparin concentration at maximal rate of thrombin inhibition ([3]; heparin): 5 µg/mL
- maximal rate of thrombin inhibition in the presence of heparin ([3]; heparin at optimal concentration): 2.23±0.43×10^9 M^-1 min^-1
- Inhibition Rate k2 × 10^8 (M^-1 min^-1), Thrombin + dermatan sulfate ([3]; maximal rate of dermatan sulfate curve, mean ± S.D.): 18.0 ± 5.0 × 10^8 (M^-1 min^-1)
- Inhibition Rate k2 × 10^8 (M^-1 min^-1), Thrombin + heparin ([3]; maximal rate of heparin curve, mean ± S.D.): 22.3 ± 4.3 × 10^8 (M^-1 min^-1)
- Ratio (variant/wt), Thrombin + dermatan sulfate ([3]; maximal rates): 1.2
- Ratio (variant/wt), Thrombin + heparin ([3]; maximal rates): 2.4
- increase in the rate of thrombin inhibition with heparin versus wt-rHCII ([3]; maximal rates with heparin): > 2 fold
- increase of rate of thrombin inhibition with heparin ([3]; with heparin versus without): over 100,000 fold
